Measured values taken from patent publication US20240343809A1 (EXCELMAB, published 2024).
Numbering of substitutions follows the chain as printed. Blank lines part the entries; values can stand above or below the binder they belong to.

Assays:
[1] = target: T1, human B7-H3 antigen, recombinant extracellular domain (ECD) (29-461) (human, UniProt Q5ZPR3 29-461); experiment: ELISA, coated human B7-H3 antigen
T1 construct: range 29-461; Expressed in 293F cells as B7-H3-TEV-cFc-His fusion, cut with TEV protease and cleaned over a nickel column to give the human B7-H3 antigen; also called recombinant human B7-H3 antigen; hB7-H3
T1 sequence (looked up): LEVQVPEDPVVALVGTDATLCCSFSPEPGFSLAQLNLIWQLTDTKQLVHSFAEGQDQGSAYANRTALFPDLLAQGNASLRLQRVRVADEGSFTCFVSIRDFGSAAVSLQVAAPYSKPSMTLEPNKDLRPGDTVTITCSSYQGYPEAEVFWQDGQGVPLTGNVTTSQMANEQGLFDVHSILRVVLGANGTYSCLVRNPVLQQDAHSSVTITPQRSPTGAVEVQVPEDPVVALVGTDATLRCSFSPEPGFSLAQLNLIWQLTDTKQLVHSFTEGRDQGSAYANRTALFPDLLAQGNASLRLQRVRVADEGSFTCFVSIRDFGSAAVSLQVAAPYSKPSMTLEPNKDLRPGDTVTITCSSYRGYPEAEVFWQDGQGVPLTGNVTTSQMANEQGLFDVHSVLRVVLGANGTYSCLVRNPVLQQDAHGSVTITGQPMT
Procedure: (§1) The binding activity of the 5D9 to B7-H3 antigen was analyzed by ELISA. Human B7-H3 antigens were coated on the 96-well plate and placed at 4° C. overnight. The antibody 5D9 and controls were diluted to 10 μg/mL, followed by 4-fold dilution gradients to generate a total of 8 different concentrations. The diluted samples and the wells coated antigen were incubated for 1h. After washing, HRP (horseradish peroxidase)-labeled goat anti-human IgG (H+L) secondary antibody was added to the plate and incubated for 1h. TMB (3,3′,5,5′-tetramethylbenzidine) solution was then added to each well after washing for chromogenesis. The absorbance was measured at OD₄₅₀ₙₘ with a microplate reader. Taking the logarithmic value of the sample concentration as the X-axis, and the absorbance OD₄₅₀ₙₘ value as the Y-axis, a dose-response curve was drawn to calculate the EC₅₀. The EC₅₀ represents the binding activity of the antibody to B7-H3 antigen. A negative control IgG group and a positive antibody Enoblituzumab control group were meanwhile set in the experiment.

[2] = target: T1, human B7-H3 antigen, recombinant …; experiment: ELISA, coated human B7-H3 antigen; remark: listed apart in the source
Procedure: as §1
ELISA was used to analyze the binding activity of affinity-matured variants to human B7-H3 antigen. By taking the logarithmic value of the sample concentration as the X-axis, and the absorbance OD₄₅₀ₙₘ value as the Y-axis, a dose-response curve was drawn to calculate the EC₅₀. The EC₅₀ represents the binding activity of the affinity-matured variants to B7-H3 antigen. A positive control Enoblituzumab and a negative control hIgG were set in the experiment.

EC50 [2]: 0.0303 µg/mL
B6: affinity-matured B7-H3 antibody 43D4 (antibody, V domains shown)
VH: QVQLVQSGAEVKKPGSSVKVSCKASGGTSGVALINWVRQAPGQGLEWMGGIIPLFGTANYAQKFQGRVTITADESTSTAYMELSSLRSDDTAVYYCARDQVVATSGVNFGMDVWGQGTTVTVSS
VL: DIQMTQEPSLTTSPGGTVTLTCRSSTGAVTTSNYANWVQEKPGQAPRGLIGGTNKRAPGTPARFSGSLIGGKAALTITGVQPEDEAIYFCALWYSNLWVFGGGTKLEIK
notes: Full antibody expressed in 293F cells, protein A purified; VH assembled from the framework and CDR entries

EC50 [2]: 0.0279 µg/mL
B8: affinity-matured B7-H3 antibody 43G5 (antibody, V domains shown)
VH: B6 VH with S29V, G30R, V31P
VL: B6 VL
notes: as for B6

EC50 [2]: 0.0259 µg/mL
B13: affinity-matured B7-H3 antibody 48B12 (antibody, V domains shown)
VH: B6 VH with S29T, V31R, A32Y
VL: B6 VL
notes: as for B6

EC50 [2]: 0.0321 µg/mL
B15: affinity-matured B7-H3 antibody 50A1 (antibody, V domains shown)
VH: B6 VH with S29F, G30S, V31N, A32Y, L33A, A103P, T104L
VL: B6 VL
notes: as for B6

EC50 [2]: 0.0336 µg/mL
B16: affinity-matured B7-H3 antibody 49H5 (antibody, V domains shown)
VH: B6 VH with S29F, G30S, V31N, A32Y, L33A, L54D, G56N, T57S
VL: B6 VL
notes: as for B6

EC50 [2]: 0.0309 µg/mL
B18: affinity-matured B7-H3 antibody 49F6 (antibody, V domains shown)
VH: B6 VH with S29F, G30S, V31N, A32Y, L33A, L54G, G56D, T57A, A58V
VL: B6 VL
notes: as for B6

EC50 [2]: 0.0285 µg/mL
B19: affinity-matured B7-H3 antibody 49C8 (antibody, V domains shown)
VH: B6 VH with S29F, G30S, V31N, A32Y, L33A, L54K, G56R, T57S, A58Q
VL: B6 VL
notes: as for B6

EC50 [2]: 0.0251 µg/mL
B27: affinity-matured B7-H3 antibody 48D10 (antibody, V domains shown)
VH: B6 VH with S29R, G30P, V31A
VL: B6 VL
notes: as for B6

EC50 [2]: 0.0261 µg/mL
B29: affinity-matured B7-H3 antibody 49E1 (antibody, V domains shown)
VH: B6 VH with S29F, G30S, V31N, A32Y, L33A, L54V, G56R, T57S, A58V
VL: B6 VL
notes: as for B6

EC50 [2]: 0.0411 µg/mL
B30: affinity-matured B7-H3 antibody 43G11 (antibody, V domains shown)
VH: B6 VH with S29L, G30R, V31P, A32V
VL: B6 VL
notes: as for B6

EC50 [2]: 0.0244 µg/mL
B31: affinity-matured B7-H3 antibody 47H4 (antibody, V domains shown)
VH: B6 VH with S29F, G30S, V31N, A32Y, L33A, Q100F, V101D, V102A, A103P, T104G
VL: B6 VL
notes: as for B6

The next lines start with the binder.

B1: B7-H3 antibody 5D9 (antibody, V domains shown)
VH: B6 VH with S29F, G30S, V31N, A32Y, L33A
VL: B6 VL
notes: Expressed as full antibody (heavy and light chain) in 293F cells, protein A purified, detected with anti-human IgG
binding result [1]: binds

B2: affinity-matured B7-H3 antibody 46D4 (antibody, V domains shown)
VH: B6 VH with S29F, G30S, V31N, A32Y, L33A, Q100V, A103P, T104R
VL: B6 VL
notes: as for B6
EC50 [2]: 0.0283 µg/mL

B3: affinity-matured B7-H3 antibody 49C3 (antibody, V domains shown)
VH: B6 VH with S29F, G30S, V31N, A32Y, L33A, L54N, G56E, T57S, A58V
VL: B6 VL
notes: as for B6
EC50 [2]: 0.0245 µg/mL

B4: affinity-matured B7-H3 antibody 46H7 (antibody, V domains shown)
VH: B6 VH with S29F, G30S, V31N, A32Y, L33A, Q100R, V101F, V102T, A103P, T104R
VL: B6 VL
notes: as for B6
EC50 [2]: 0.039 µg/mL

B5: affinity-matured B7-H3 antibody 50A6 (antibody, V domains shown)
VH: B6 VH with S29F, G30S, V31N, A32Y, L33A, Q100A, A103P, T104N
VL: B6 VL
notes: as for B6
EC50 [2]: 0.0247 µg/mL

B7: affinity-matured B7-H3 antibody 46H9 (antibody, V domains shown)
VH: B6 VH with S29F, G30S, V31N, A32Y, L33A, Q100R, V101E, V102A, A103R, T104E
VL: B6 VL
notes: as for B6
EC50 [2]: 0.147 µg/mL

B9: affinity-matured B7-H3 antibody 42A1 (antibody, V domains shown)
VH: B6 VH with S29G, V31I, A32Y
VL: B6 VL
notes: as for B6
EC50 [2]: 0.0354 µg/mL

B10: affinity-matured B7-H3 antibody 50B10 (antibody, V domains shown)
VH: B6 VH with S29F, G30S, V31N, A32Y, L33A, Q100V, V101E, A103F, T104N
VL: B6 VL
notes: as for B6
EC50 [2]: 0.0278 µg/mL

B11: affinity-matured B7-H3 antibody 50E3 (antibody, V domains shown)
VH: B6 VH with S29F, G30S, V31N, A32Y, L33A, Q100V, V101N, V102N, A103P, T104G
VL: B6 VL
notes: as for B6
EC50 [2]: 0.0418 µg/mL

B12: affinity-matured B7-H3 antibody 45F4 (antibody, V domains shown)
VH: B6 VH with S29F, G30S, V31N, A32Y, L33A, G56R, T57S, A58S
VL: B6 VL
notes: as for B6
EC50 [2]: 0.0219 µg/mL

B14: affinity-matured B7-H3 antibody 48E9 (antibody, V domains shown)
VH: B6 VH with S29G, V31A, A32Y
VL: B6 VL
notes: as for B6
EC50 [2]: 0.0438 µg/mL

B17: affinity-matured B7-H3 antibody 50A4 (antibody, V domains shown)
VH: B6 VH with S29F, G30S, V31N, A32Y, L33A, Q100E, A103V, T104G
VL: B6 VL
notes: as for B6
EC50 [2]: 0.0274 µg/mL

B20: affinity-matured B7-H3 antibody 45B11 (antibody, V domains shown)
VH: B6 VH with S29F, G30S, V31N, A32Y, L33A, L54M, F55W, G56Q, T57S, A58V
VL: B6 VL
notes: as for B6
EC50 [2]: 0.0265 µg/mL

B21: affinity-matured B7-H3 antibody 48G2 (antibody, V domains shown)
VH: B6 VH with G30R, V31P, A32V
VL: B6 VL
notes: as for B6
EC50 [2]: 0.0303 µg/mL

B22: affinity-matured B7-H3 antibody 49B2 (antibody, V domains shown)
VH: B6 VH with S29F, G30S, V31N, A32Y, L33A, L54N, G56H, T57S, A58S
VL: B6 VL
notes: as for B6
EC50 [2]: 0.0286 µg/mL

B23: affinity-matured B7-H3 antibody 50A11 (antibody, V domains shown)
VH: B6 VH with S29F, G30S, V31N, A32Y, L33A, A103P, T104R
VL: B6 VL
notes: as for B6
EC50 [2]: 0.0339 µg/mL

B24: affinity-matured B7-H3 antibody 44F2 (antibody, V domains shown)
VH: B6 VH with S29F, G30S, V31N, A32Y, L33A, L54G, G56Y, T57S, A58L
VL: B6 VL
notes: as for B6
EC50 [2]: 0.0464 µg/mL

B25: affinity-matured B7-H3 antibody 48A6 (antibody, V domains shown)
VH: B6 VH with S29R, G30P, V31P
VL: B6 VL
notes: as for B6
EC50 [2]: 0.0272 µg/mL

B26: affinity-matured B7-H3 antibody 49C7 (antibody, V domains shown)
VH: B6 VH with S29F, G30S, V31N, A32Y, L33A, L54N, G56Y, T57S, A58V
VL: B6 VL
notes: as for B6
EC50 [2]: 0.033 µg/mL

B28: affinity-matured B7-H3 antibody 47C8 (antibody, V domains shown)
VH: B6 VH with S29F, G30S, V31N, A32Y, L33A, Q100I, V101E, A103M, T104A
VL: B6 VL
notes: as for B6
EC50 [2]: 0.0426 µg/mL

B32: affinity-matured B7-H3 antibody 42F7 (antibody, V domains shown)
VH: B6 VH with S29R, G30P, V31A
VL: B6 VL
notes: as for B6
EC50 [2]: 0.0278 µg/mL

B33: affinity-matured B7-H3 antibody 44C5 (antibody, V domains shown)
VH: B6 VH with S29F, G30S, V31N, A32Y, L33A, L54R, T57G, A58V
VL: B6 VL
notes: as for B6
EC50 [2]: 0.0639 µg/mL

B34: affinity-matured B7-H3 antibody 49D12 (antibody, V domains shown)
VH: B6 VH with S29F, G30S, V31N, A32Y, L33A, L54R, G56A, T57S, A58R
VL: B6 VL
notes: as for B6
EC50 [2]: 0.0219 µg/mL

B35: Enoblituzumab (antibody, V domains shown)
VH: EVQLVESGGGLVQPGGSLRLSCAASGFTFSSFGMHWVRQAPGKGLEWVAYISSDSSAIYYADTVKGRFTISRDNAKNSLYLQMNSLRDEDTAVYYCGRGRENIYYGSRLDYWGQGTTVTVSS
VL: DIQLTQSPSFLSASVGDRVTITCKASQNVDTNVAWYQQKPGKAPKALIYSASYRYSGVPSRFSGSGSGTDFTLTISSLQPEDFATYYCQQYNNYPFTFGQGTKLEIKR
EC50 [2]: 0.0255 µg/mL
